Patent EP2344531B1 (Danisco US Inc., dated 2014)
Changes are numbered by the printed parent chain. Numbers in names are those of the source. Each block holds one binder with its values, some of them ahead of it.

Assays:
[1] = target: T1, FGF-5 (fibroblast growth factor 5) (UniProt P12034 18-268, limits assumed); test: BioVeris ECL competition assay with a labeled competitor; legend: ++ = IC50 about 10 - 50 µM
T1 sequence (looked up): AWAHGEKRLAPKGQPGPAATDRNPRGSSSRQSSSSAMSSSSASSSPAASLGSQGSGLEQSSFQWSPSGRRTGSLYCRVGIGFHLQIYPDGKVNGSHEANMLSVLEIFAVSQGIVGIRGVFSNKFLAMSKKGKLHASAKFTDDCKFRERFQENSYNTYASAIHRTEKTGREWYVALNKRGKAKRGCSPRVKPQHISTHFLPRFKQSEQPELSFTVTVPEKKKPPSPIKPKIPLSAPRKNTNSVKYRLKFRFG

[2] = target: T2, TGFβ1 (transforming growth factor β1) (UniProt P01137 279-390); test: BioVeris ECL competition assay with a labeled competitor; negative control
T2 sequence (P01137 279-390 limits assumed): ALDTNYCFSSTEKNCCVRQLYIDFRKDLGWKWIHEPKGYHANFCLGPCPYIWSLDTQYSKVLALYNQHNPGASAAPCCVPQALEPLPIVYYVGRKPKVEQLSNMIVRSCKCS

[3] = target: T2, TGFβ1 (transforming growth factor β1); test: BioVeris ECL competition assay with a labeled competitor; legend: ++ = IC50 about 10 - 50 µM
[4] = target: T3, VEGF (vascular endothelial growth factor) (UniProt P15692-4 27-191, limits assumed, biotin label (Example 5)); test: BioVeris ECL competition assay with a labeled competitor; legend: +++ = IC50 about 2 - 10 µM
T3 sequence (P15692 other isoform, or with tags, fused parts or gaps limits assumed): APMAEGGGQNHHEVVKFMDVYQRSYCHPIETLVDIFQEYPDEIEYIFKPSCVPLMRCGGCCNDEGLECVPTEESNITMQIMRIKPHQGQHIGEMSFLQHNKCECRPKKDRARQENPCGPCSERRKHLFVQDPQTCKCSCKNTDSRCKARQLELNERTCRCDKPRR

[5] = target: T4, TNFα (tumor necrosis factor α) (UniProt P01375 77-233); test: BioVeris ECL competition assay with a labeled competitor; legend: ++ = IC50 about 10 - 50 µM
T4 sequence (P01375 77-233 limits assumed): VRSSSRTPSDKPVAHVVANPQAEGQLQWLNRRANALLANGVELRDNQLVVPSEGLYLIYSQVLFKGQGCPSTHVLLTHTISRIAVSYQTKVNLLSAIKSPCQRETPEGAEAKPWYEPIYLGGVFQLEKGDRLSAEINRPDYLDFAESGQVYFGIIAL

[6] = target: T4, TNFα (tumor necrosis factor α); test: BioVeris ECL competition assay with a labeled competitor; legend: + = IC50 about 50 - 250 µM
[7] = target: T3, VEGF (vascular endothelial growth …); test: BioVeris ECL competition assay with a labeled competitor; legend: ++ = IC50 about 10 - 50 µM
[8] = target: T4, TNFα (tumor necrosis factor α); test: BioVeris ECL competition assay with a labeled competitor; negative control

IC50 [1]: 10 to 50 µM
B1: MM007-Q-BBIt-FGF-5 (BBIt-A13I-L29P-F50T-V52A with the FGF-5 binding peptide MM007 RTQPYPL) (designed binder)
chain: DPDDESSKPCCDQCICTKSNPPQCRCSDMRPNSCHSACKSCACRTQPYPLCTCADITDFCYEPCKPSE
notes: also called BBIt-MM007-Q-A13I-L29P-F50T-V52A

IC50 [2]: > 250 µM
IC50 [1]: 10 to 50 µM
B2: FGFps2-Q-BBIt-FGF-5 (BBIt-A13I-L29P-F50T-V52A with the FGF-5 binding peptide FGFps2 TWIDSTP) (designed binder)
chain: B1 chain with R44T, T45W, Q46I, P47D, Y48S, P49T, L50P
notes: also called BBIt-FGFps2-Q-A13I-L29P-F50T-V52A

IC50 [3]: 10 to 50 µM
B3: MM021W-Q-BBIt-TGF (BBIt-A13I-L29P-F50T-V52A with the TGFβ1 binding peptide MM021W KHNVDWL) (designed binder)
chain: B1 chain with R44K, T45H, Q46N, P47V, Y48D, P49W
notes: also called MM021W-Q-BBIt-TGFβ1; BBIt-MM021W-Q-A13I-L29P-F50T-V52A

IC50 [4]: 2 to 10 µM
B4: VegKD-Q (BBIt-A13I-S25K-L29P-V52K with the VEGF-binding peptide VegKD KYDLYWW) (designed binder)
chain: DPDDESSKPCCDQCICTKSNPPQCRCKDMRPNSCHSACKSCICKYDLYWWCFCKDITDFCYEPCKPSE

IC50 [3]: 10 to 50 µM
B14: PEN3-Q-BBIt-TGF (BBIt-A13I-L29P-F50T-V52A with the TGFβ1 binding peptide PEN3 PENINVLP) (designed binder)
chain: DPDDESSKPCCDQCICTKSNPPQCRCSDMRPNSCHSACKSCACPENINVLPCTCADITDFCYEPCKPSE
notes: also called PEN3-Q-BBIt-TGFβ1; BBIt-PEN3-Q-A13I-L29P-F50T-V52A

Further lines, the binder ahead of its results:

B5: BBIt-TNF-T1 (BBIt-TNFα-T1-A13I-S25R-M27A-L29P-S31A-F50K-V52T, peptide RYWQDIP) (designed binder)
chain: DPDDESSKPCCDQCICTKSNPPQCRCRDARPNACHSACKSCACRYWQDIPCKCTDITDFCYEPCKPSE
IC50 [5]: 10 to 50 µM

B6: BBIt-TNF-T3 (BBIt-TNFα-T3-A13I-S25R-M27A-L29P-S31A-F50K-V52T, peptide DMIMVSI) (designed binder)
chain: B5 chain with R44D, Y45M, W46I, Q47M, D48V, I49S, P50I
notes: the listing entry must be checked
IC50 [6]: 50 to 250 µM

B7: BBIt-AV-V5 (BBIt-VEGF-V5-A13I-S25R-M27A-L29P-S31A-F50K-V52T, peptide KPSSASS) (designed binder)
chain: B5 chain with R44K, Y45P, W46S, Q47S, D48A, I49S, P50S
IC50 [7]: 10 to 50 µM

B8: BBIt-TNF-T2 (BBIt-TNFα-T2-A13I-S25R-M27A-L29P-S31A-F50K-V52T, peptide APEPILA) (designed binder)
chain: B5 chain with R44A, Y45P, W46E, Q47P, D48I, I49L, P50A
IC50 [6]: 50 to 250 µM

B9: BBIt-AV-V1 (BBIt-VEGF-V1-A13I-S25R-M27A-L29P-S31A-F50K-V52T, peptide SKHSQIT) (designed binder)
chain: B5 chain with R44S, Y45K, W46H, Q47S, D48Q, P50T
IC50 [8]: > 250 µM
IC50 [7]: 10 to 50 µM

B10: BBIt-AV-V2 (BBIt-VEGF-V2-A13I-S25R-M27A-L29P-S31A-F50K-V52T, peptide KTNPSGS) (designed binder)
chain: B5 chain with R44K, Y45T, W46N, Q47P, D48S, I49G, P50S
IC50 [4]: 2 to 10 µM

B11: BBIt-AV-V3 (BBIt-VEGF-V3-A13I-S25R-M27A-L29P-S31A-F50K-V52T, peptide RPTGHSL) (designed binder)
chain: B5 chain with Y45P, W46T, Q47G, D48H, I49S, P50L
IC50 [7]: 10 to 50 µM

B12: BBIt-AV-V4 (BBIt-VEGF-V4-A13I-S25R-M27A-L29P-S31A-F50K-V52T, peptide KHSAKAE) (designed binder)
chain: B5 chain with R44K, Y45H, W46S, Q47A, D48K, I49A, P50E
IC50 [4]: 2 to 10 µM

B13: BBIt-AV-V6 (BBIt-VEGF-V6-A13I-S25R-M27A-L29P-S31A-F50K-V52T, peptide PVTKRVH) (designed binder)
chain: B5 chain with R44P, Y45V, W46T, Q47K, D48R, I49V, P50H
IC50 [4]: 2 to 10 µM
